Measured values: US20230312740A1 (VIRTUOSO BINCO, published 2023)
Values belong to the binder of their own block, whether it stands above or below them.

Key:
Avi-human CD38 ECD [1] = target: T1, Avi-human CD38 ECD (human, UniProt P28907 43-300); test: SPR
T1 construct: eluted as a monomer; also called hCD38; huCD38

Human ICAM1 ECD-Avi [2] = target: T2, Human ICAM1 ECD-Avi (human, UniProt P05362 28-480); test: SPR
T2 construct: eluted as a monomer; also called hICAM1; recombinant ICAM1

Human ICAM1 ECD-Avi [3] = target: T2, Human ICAM1 ECD-Avi; test: ELISA, plate coated with recombinant ICAM1
Protocol: A 96-well plate was coated overnight at 4° C. with 1 µg/ml recombinant CD38 or ICAM1. After washing 3 times, the plate was blocked with 300 µl 1% BSA in PBST at 37° C. for 1 hour. Serially diluted antibodies were added and incubated at 37° C. for 1 hour. The plate was then washed 4 times with PBST and incubated with 1:5000 diluted 2nd antibody (Sigma, Cat# A0293) at 37° C. for 1 hour.

[4] = target: T3, ICAM1 on the surface of tumor cells (human, UniProt P05362 28-532); test: flow cytometry on DU145 cells
T3 construct: whole, on cells; also called ICAM1 on DU145 cells; ICAM1 on the surface of Daudi cells
Protocol: (§1) Surface expression of CD38 and ICAM1 on the transformed cell lines was quantified by flow cytometry. Harvested cells were centrifuged at 2000 rpm for 5 min, resuspended in 10 - 15 ml ice-cold culture medium, and then counted. Then, 3×10⁶ cells were resuspended per ml of blocking buffer (PBS plus 2% FBS). 100 µl of the cell suspension was dispensed into each well of a 96-well plate and incubated at room temperature for 10-20 min. […] While incubating, purified antibodies were diluted to the desired dilution with blocking buffer. After a 10-20 minutes incubation, cells were centrifuged for 5 minutes at 2000 rpm in a refrigerated centrifuge. Blocking buffer was aspirated, and the cells were resuspended in 100 µl/well diluted antibodies and incubated for 1 hour at 4° C. The cells were then washed 3 times with PBS plus 2% FBS. […] The cells were then washed 3 times with 200 µl PBS by centrifuging at 2000 rpm for 5 min. After the last wash, the cells were resuspended in 300 µl cold PBS and analyzed on a FACSVerse™ (BD Biosciences) flow cytometer.
Binding of the chimeric anti-CD38 and anti-ICAM1 antibodies to proteins on the surface of tumor cells was determined by flow cytometry, as described above.

Human ICAM1 ECD-Avi [5] = target: T2, Human ICAM1 ECD-Avi; test: SPR (Biacore 8K), antibody captured, monomeric ICAM1 ECD injected
Protocol: Furthermore, binding kinetics measurements of the anti-CD38 and anti-ICAM1 antibodies were not affected by antibody valency in the SPR assays because antibodies were immobilized and challenged with monomeric antigens. SPR was performed on a Biacore 8K instrument (GE Healthcare). Antibodies were captured on Biacore Series S CM5 sensor chips coated with a monoclonal mouse anti-human IgG (Fc) antibody (GE Healthcare human antibody capture kit). Serial 3-fold dilutions of antigen (CD38 ECD or ICAM1 ECD) were injected at a flow rate of 30 µl/min. Each sample was analyzed with 1 min association and 10 min dissociation at room temperature (25° C.). After each injection, the chip was regenerated using 3 M MgCl₂. A 1:1 Langmuir model of simultaneous fitting of kₒₙ and koff was used for kinetics analysis.

[6] = target: T3, ICAM1 on the surface of tumor cells; test: flow cytometry on Daudi cells; lower end of the range; Daudi cells
Protocol: as §1

Avi-human CD38 ECD [7] = target: T1, Avi-human CD38 ECD; test: ELISA on human CD38 ECD; class A = EC50 0.02 nM - 0.1 nM (table legend)
[8] = target: T4, CD38 on the surface of tumor cells (human, UniProt P28907 1-300); test: cell-based or functional assay
[9] = target: T4, CD38 on the surface of tumor cells; test: cell-based or functional assay; remark: listed apart in the source
Avi-human CD38 ECD [10] = target: T1, Avi-human CD38 ECD; test: ELISA on human CD38 ECD; class B = EC50 0.1 nM - 0.5 nM (table legend)

Kd (Avi-human CD38 ECD [1]): 2000 to 5000 pM
Kd (Human ICAM1 ECD-Avi [2]): 100 to 150 pM
B1: αCD38(scFv) x αICAM1 (bispecific antibody, human IgG1, kappa)
heavy: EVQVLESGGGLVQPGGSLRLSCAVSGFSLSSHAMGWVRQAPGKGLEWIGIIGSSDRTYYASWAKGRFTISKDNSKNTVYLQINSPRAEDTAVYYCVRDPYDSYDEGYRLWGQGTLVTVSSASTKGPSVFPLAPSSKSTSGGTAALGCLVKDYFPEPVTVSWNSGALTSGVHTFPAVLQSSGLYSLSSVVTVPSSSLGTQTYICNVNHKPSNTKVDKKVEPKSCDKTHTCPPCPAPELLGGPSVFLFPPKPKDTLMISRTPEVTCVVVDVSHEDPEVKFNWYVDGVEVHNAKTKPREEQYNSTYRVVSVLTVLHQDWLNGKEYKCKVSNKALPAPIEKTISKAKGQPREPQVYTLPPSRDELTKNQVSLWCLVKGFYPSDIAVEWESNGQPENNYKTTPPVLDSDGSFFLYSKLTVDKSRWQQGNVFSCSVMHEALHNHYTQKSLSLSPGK
light: DIQMTQSPSTLSASVGDRVTITCQASQSIYRYLSWYQQKPGKAPKFLIYDASKLASGVPSRFSGSGSGTEFTLTISSVQPDDFATYYCQQAYSSGSIDNAFGGGTKVEIKRTVAAPSVFIFPPSDEQLKSGTASVVCLLNNFYPREAKVQWKVDNALQSGNSQESVTEQDSKDSTYSLSSTLTLSKADYEKHKVYACEVTHQGLSSPVTKSFNRGEC
scFv: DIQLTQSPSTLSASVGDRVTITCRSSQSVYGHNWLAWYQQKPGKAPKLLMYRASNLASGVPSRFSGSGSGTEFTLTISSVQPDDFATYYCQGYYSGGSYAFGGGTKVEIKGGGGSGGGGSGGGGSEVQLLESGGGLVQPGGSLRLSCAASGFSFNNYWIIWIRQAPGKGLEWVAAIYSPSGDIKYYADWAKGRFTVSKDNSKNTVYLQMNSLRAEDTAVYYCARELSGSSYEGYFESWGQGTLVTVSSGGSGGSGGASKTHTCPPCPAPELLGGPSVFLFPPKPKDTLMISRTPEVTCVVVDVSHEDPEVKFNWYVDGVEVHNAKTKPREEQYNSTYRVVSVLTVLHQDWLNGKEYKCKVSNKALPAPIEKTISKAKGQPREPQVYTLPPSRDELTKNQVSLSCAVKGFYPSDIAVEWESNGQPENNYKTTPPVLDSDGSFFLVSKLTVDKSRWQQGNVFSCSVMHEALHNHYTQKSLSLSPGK
notes: h11F2-6 Fab arm on Fc-knob, h18E4-19 scFv on Fc-hole; IgG1 Fc; also called three chain bispecific antibody; scFv format bispecific antibody

Kd (Avi-human CD38 ECD [1]): 2000 to 5000 pM
Kd (Human ICAM1 ECD-Avi [2]): 100 to 150 pM
B2: αCD38(TCR) x αICAM1 (bispecific antibody, human IgG1, kappa)
heavy 1: EVQLLESGGGLVQPGGSLRLSCAASGFSFNNYWIIWIRQAPGKGLEWVAAIYSPSGDIKYYADWAKGRFTVSKDNSKNTVYLQMNSLRAEDTAVYYCARELSGSSYEGYFESWGQGTLVTVLEDLKNVFPPEVAVFEPSEAEISHTQKATLVCLATGFYPDHVELSWWVNGKEVHSGVCTDPQPLKEQPALQDSRYALSSRLRVSATFWQNPRNHFRCQVQFYGLSENDEWTQDRAKPVTQIVSAEAWGRASDKTHTCPPCPAPELLGGPSVFLFPPKPKDTLMISRTPEVTCVVVDVSHEDPEVKFNWYVDGVEVHNAKTKPREEQYNSTYRVVSVLTVLHQDWLNGKEYKCKVSNKALPAPIEKTISKAKGQPREPQVCTLPPSREEMTKNQVSLSCAVKGFYPSDIAVEWESNGQPENNYKTTPPVLDSDGSFFLVSKLTVDKSRWQQGNVFSCSVMHEALHNHYTQKSLSLSPG
light 1: DIQLTQSPSTLSASVGDRVTITCRSSQSVYGHNWLAWYQQKPGKAPKLLMYRASNLASGVPSRFSGSGSGTEFTLTISSVQPDDFATYYCQGYYSGGSYAFGGGTKVEIKPDIQNPDPAVYQLRDSKSSDKSVCLFTDFDSQTQVSQSKDSDVYITDKCVLDMRSMDFKSNSAVAWSQKSDFACANAFQNSIIPEDTFFPSPESS
heavy 2: not shown
light 2: DIQMTQSPSTLSASVGDRVTITCQASQSIYRYLSWYQQKPGKAPKFLIYDASKLASGVPSRFSGSGSGTEFTLTISSVQPDDFATYYCQQAYSSGSIDNAFGGGTKVEIKRTVAAPSVFIFPPSDEQLKSGTASVVCLLNNFYPREAKVQWKVDNALQSGNSQESVTEQDSKDSTYSLSSTLTLSKADYEKHKVYACEVTHQGLSSPVTKSFNRGEC
notes: also called TCR format bispecific antibody; TCR-chimera bispecific antibody

EC50 (Human ICAM1 ECD-Avi [3]): ~50 pM
EC50 [4]: 1000 to 1500 pM
Kd (Human ICAM1 ECD-Avi [5]): 100 to 500 pM
B3: anti-ICAM1 chimeric monoclonal antibody 11F2 (antibody, human IgG1, kappa, V domains shown)
VH: QSVEESGGGLVKPGGTLTLTCTVSGFSLSSHAMGWVRQAPGKGLEYIGIIGSSDRTYYASWAKGRFTISKTSTTVDLKITSPTTEDTATYFCVRDPYDSYDDGYRLWGPGTLVTVSS
VL: AYDMTQTPASVEVAVGGTVTIKCQASQSIYRYLSWYQKKPGQRPKFLIYDASKLASGVPSRFEGSGSGTEFTLTISGAQSDDAATYYCQQAYSSGSIDNAFGGGTEVVVKR
notes: Rabbit variable domains on human IgG1 / human kappa constant regions; also called chimeric 11F2

EC50 (Human ICAM1 ECD-Avi [3]): ~50 pM
EC50 [4]: 1000 to 1500 pM
Kd (Human ICAM1 ECD-Avi [5]): 100 to 500 pM
EC50 [6]: 40 to 80 pM
B4: anti-ICAM1 chimeric monoclonal antibody 8B12 (antibody, human IgG1, kappa, V domains shown)
VH: QSVEESGGGLVKPGGTLTLTCTVSGFSLSTHAMGWVRQAPGKGLEYIGIIGSSDRTYYASWAKGRFTISKTSTTVDLKITSPTTEDTATYFCVRDPYDSFDDGYRLWGPGTLVTVSS
VL: AYDMTQTPASVEVAVGGTVTIKCQASQSIYSYLSWYQQKPGQRPKFLIYDASKVASGVPSRFKGSGSGTEFTLTISAVQSDDAATYYCQQAYSSSNVDNAFGGGTEVMVKR
notes: Rabbit variable domains on human IgG1 / human kappa constant regions; also called chimeric 8B12

EC50 (Avi-human CD38 ECD [7]): 20 to 100 pM
ADCC EC50 on Daudi cells; antibody made in CHO [8]: 12.7 pM
ADCC EC50 on Daudi cells; antibody made in CHO FUT8 -/- (afucosylated) [8]: 0.4 pM
ADCC EC50 on HuNS1 cells; antibody made in CHO [8]: 80 pM
ADCC EC50 on HuNS1 cells; antibody made in CHO FUT8 -/- (afucosylated) [8]: 80 pM
ADCC EC50 on Raji cells; antibody made in CHO [8]: 14 pM
ADCC EC50 on Raji cells; antibody made in CHO FUT8 -/- (afucosylated) [8]: 8 pM
ADCC on Daudi cells, EC50 [9]: 0.05 to 0.1 pM
B5: h18E4-19 (antibody, V domains shown)
VH: EVQLLESGGGLVQPGGSLRLSCAASGFSFNNYWIIWIRQAPGKGLEWVAAIYSPSGDIKYYADWAKGRFTVSKDNSKNTVYLQMNSLRAEDTAVYYCARELSGSSYEGYFESWGQGTLVTV
VL: DIQLTQSPSTLSASVGDRVTITCRSSQSVYGHNWLAWYQQKPGKAPKLLMYRASNLASGVPSRFSGSGSGTEFTLTISSVQPDDFATYYCQGYYSGGSYAFGGGTKVEIK
notes: also called hu18E4-19; humanized h18E4-19 antibody

binding result (Avi-human CD38 ECD [1]): binds
B6: h18E4-13 (antibody, V domains shown)
VH: EVQLLESGGGLVQPGGSLRLSCAASGFSFNNYWICWIRQAPGKGLEWVACIYSPSGDIKYYADWAKGRFTVSKDNSKNTVYLQMNSLRAEDTAVYYCARELSGSSYEGYFESWGQGTLVTVSS
VL: DIQLTQSPSTLSASVGDRVTITCRSSQSVYGHNWLAWYQQKPGKAPKLLMYRASNLASGVPSRFSGSGSGTEFTLTISSVQPDDFATYYCQGYYSGGSYAFGGGTKVEIK

EC50 (Avi-human CD38 ECD [10]): 100 to 500 pM
B7: h18E4-19 HC G100cA (antibody, name in Kabat numbering, V domains shown)
VH: EVQLLESGGGLVQPGGSLRLSCAASGFSFNNYWIIWIRQAPGKGLEWVAAIYSPSGDIKYYADWAKGRFTVSKDNSKNTVYLQMNSLRAEDTAVYYCARELSGSSYEAYFESWGQGTLVTV
VL: DIQLTQSPSTLSASVGDRVTITCRSSQSVYGHNWLAWYQQKPGKAPKLLMYRASNLASGVPSRFSGSGSGTEFTLTISSVQPDDFATYYCQGYYSGGSYAFGGGTKVEIK
notes: Alanine scan variant of h18E4-19; Kabat numbers, not linear positions of the entry
